Measurements: US20260258137A1 (HARBOUR BIOMED SHANGHAI, published 2026)

Experiments:
[1] = target: T1, Human PD-L1 (Acrobiosystems, EP-101-96tests, A001-214) (human, UniProt Q9NZQ7 19-238); assay: competition ELISA: hPD-1-Biotin binding to coated hPD-L1
T1 construct: bought reagent; also called human PD-L1 protein

[2] = target: human PD-L1 on Hep3B cells co-expressing human PD-L1 and OS8 (human, UniProt Q9NZQ7 19-290); assay: cell-based or functional assay
[3] = target: T2, human PD-L1 on CHO-K1 cells (CHO-K1/hPD-L1, Nanjing Genscript, M00543) (human, UniProt Q9NZQ7 19-290); assay: flow cytometry competition: biotin-hPD-1 binding to CHO-K1/hPD-L1 cells
T2 construct: whole, on cells; also called CHO-K1 cells overexpressing human PD-L1; human PD-L1 on the cell surface

[4] = target: T2, human PD-L1 on CHO-K1 cells …; assay: flow cytometry on CHO-K1/hPD-L1 cells
[5] = target: T3, Human PD-L1-hFc protein (Acrobiosystems, PD1-H5258) (human, UniProt Q9NZQ7 19-238); assay: competition ELISA: hB7-1-Biotin binding to coated hPD-L1-hFc
T3 construct: bought reagent; not shown: human Fc (hFc)

[6] = target: T4, Human PD-L1 (Acrobiosystems, PD1-H5229) (human, UniProt Q9NZQ7 19-238); assay: ELISA, coated human PD-L1
T4 construct: bought reagent; also called human PD-L1 protein
T4 sequence (Q9NZQ7 19-238 limits assumed): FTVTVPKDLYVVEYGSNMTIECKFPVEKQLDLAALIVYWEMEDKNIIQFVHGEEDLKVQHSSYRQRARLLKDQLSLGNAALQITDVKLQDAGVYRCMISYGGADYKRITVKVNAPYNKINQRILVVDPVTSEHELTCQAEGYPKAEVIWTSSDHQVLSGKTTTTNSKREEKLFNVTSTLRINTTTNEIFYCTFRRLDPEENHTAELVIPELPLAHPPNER

T1 sequence (Q9NZQ7 19-238 limits assumed): as above
T3 sequence (Q9NZQ7 19-238 limits assumed): as above
T2 sequence (Q9NZQ7 19-290, one chain of several): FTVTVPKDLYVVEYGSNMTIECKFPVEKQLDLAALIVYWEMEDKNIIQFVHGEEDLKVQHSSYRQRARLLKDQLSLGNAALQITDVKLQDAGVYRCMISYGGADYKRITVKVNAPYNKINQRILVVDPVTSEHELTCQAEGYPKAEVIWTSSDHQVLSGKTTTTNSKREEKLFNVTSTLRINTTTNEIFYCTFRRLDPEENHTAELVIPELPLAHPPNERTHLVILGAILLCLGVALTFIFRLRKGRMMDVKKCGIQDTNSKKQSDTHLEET
Chain of human PD-L1 on Hep3B cells co-expressing human PD-L1 and OS8 (Q9NZQ7 19-290): as the sequence (Q9NZQ7 19-290, one chain of several) above

Binder	IC50 [1]	Maximum inhibition rate (%) [1]	EC50 (nM), PD-1 / NFAT-luciferase reporter [2]	Maximum fluorescence value (RLU) [2]	IC50 [3]	Maximum inhibition rate (%) [3]	EC50 [4]	MFI maximum value [4]	IC50 [5]	Maximum inhibition rate (%) [5]	EC50 [6]
PR000067 (antibody, human IgG1, kappa, N297A, V domains shown, fully human recombinant antibody, human IgG1 heavy chain, kappa light chain (IGKV1-5); also called 73G3G9B11) VH: EVQLVESGGGLVQPGGSLRLSCAASGFTFSSYWMSWVRQAPGKGLEWVANIKQDGSEKYYVDSVKGRFTISRDNAKNSLYLQMNSLRAEDTAVYYCARDRAVAGAFDIWGQGTMVTVSS VL: not shown	0.333 nM	92.9%	0.682 nM	79800 RLU	0.894 nM	91.2%	0.456 nM	7340 MFI	0.153 nM	36.9%	
PR000070 (antibody, human IgG1, kappa, N297A, V domains shown, fully human recombinant antibody, human IgG1 heavy chain, kappa light chain (IGKV1-5); also called 91G3H5H3) VH: EVQLVESGGGLVQPGGSLRLSCAASGFTFSSYWMSWVRQAPGKGLEWVANIKQDGSEKYYVDSVKGRFTISRDNAKNSLYLQMNSLRAEDTAVYYCARDRAVAGAFDIWGQGTMVTVSS VL: DIQMTQSPSTLSASVGDRVTVTCRASQSIYIWLAWYQQKPGKAPNLLIYKASSLETGVPSRFSGSGSGTEFTLTISSLQPDDFATYYCQQYYGSSRTFGQGTKVEIKR	0.2 nM	90.6%	0.269 nM	82700 RLU	0.449 nM	90.7%	0.21 nM	7790 MFI	0.305 nM	39.9%	0.0641 nM
PR000065 (antibody, human IgG1, kappa, N297A, V domains shown, fully human recombinant antibody, human IgG1 heavy chain, kappa light chain (IGKV1-5); also called 67C1F7G6) VH: EVQLVESGGGLVQPGGSLRLSCAASGFTFSSYWMSWVRQAPGKGLEWVANIKQDGSEKYYVDSVKGRFTISRDNAKNSLYLQMNSLRAEDTAVYYCARDRAVAGAFDIWGQGTMVTVSS VL: DIQMTQSPSTLSASVGDRVTITCRASQSIFIWLAWYQQKPGKAPNLLIYKASSLETGVPSRFSGSGSGTEFTLTISSLQPDDFATYYCQQYYGSSRTFGQGTKVEIKR	0.432 nM	99%					0.412 nM	7660 MFI	0.312 nM	43.8%	
PR000072 (antibody, human IgG1, kappa, N297A, V domains shown, fully human recombinant antibody, human IgG1 heavy chain, kappa light chain (IGKV1-5); also called 98E11H1C9) VH: EVQLVESGGGLVQPGGSLRLSCAASGFTFSSYWMSWVRQAPGKGLEWVANIKQDGSEKYYGDSVKGRFTISRDNAKNSLYLQMNSLRAEETAVYYCARDRAVAGASDIWGQGTMVTVSS VL: DIQMTQSPSTLSASVGDRVTITCRASQSISSWLAWYQQKPGKAPNLLIYKASSLETGVPSRFSGSGSGTEFTLTISSLQPDDFATYYCQQYYGYSRTFGQGTKVEIKR	0.237 nM	89.8%	0.293 nM	78000 RLU	0.746 nM	92.5%	0.292 nM	7630 MFI	0.253 nM	47.6%	0.0474 nM
PR000261 (antibody, human IgG1, kappa, N297A, V domains shown, PTM variant of PR000066 (H:D54E); heavy chain human IgG1 (N297A)) VH: EVQLVESGGGLVQPGGSLRLSCAASGFTFSSYWMSWVRQAPGKGLEWVANIKQEGSEKYYVDSVKGRFTISRDNAKNSLYLQMNSLRAEDTAVYYCARDRAVAGASAFWGQGTMVTVSS VL: DIQMTQSPSTLSASVGHRVTITCRASQSISIWLAWYQQKPGKAPDLLIYKASSLETGVPSRFSGSGSGTEFTLTISSLQPDDFATYYCQQYYGSSRTFGQGTKVEIKR											0.0385 nM
PR000069 (antibody, human IgG1, kappa, N297A, V domains shown, fully human recombinant antibody, human IgG1 heavy chain, kappa light chain (IGKV1-5); also called 85C5E4G3) VH: EVQLVESGGGLVQPGGSLRLSCAASGFTFSSYWMSWVRQAPGKGLEWVANIKQDGSEKYYVDSVKGRFTISRDNAKNSLYLQMNSLRAEDTAVFYCARDRAVAGAFAIWGQGTMVTVSS VL: DIQMTQSPSTLSASVGDRVTITCRASQSIYIWLAWYQQHPGKAPKLLIYKASSLESGVPSRFSGSGSGTEFTLTISSLQPDDFATYFCQQYYGYSRTFGQGTKVEIRR	0.313 nM	90.7%	0.271 nM	83300 RLU	0.836 nM	92.3%	0.312 nM	7530 MFI	0.28 nM	33%	0.0637 nM
PR000064 (antibody, human IgG1, kappa, N297A, V domains shown, fully human recombinant antibody, human IgG1 heavy chain, kappa light chain (IGKV1-5); also called 63G11H3G9) VH: EVQLVESGGGLVQPGGSLRLSCAASGFTFSSYWMSWVRQAPGKGLEWVANIKQDGSEKYYVDSVKGRFTISRDNAKNSLYLQMNSLRAEDTAVYYCARDRAVAGAFDIWGQGTMVTVSS VL: DIQMTQSPSTLSTSVGDRVTITCRASQSISIWLAWYQQKPGKAPKLLIYKASSLESGVPSRFSGSGSGTEFTLTISSLQPDDFATYYCQQYYGYSRTFGQGTKVEIKR	0.313 nM	91.1%	0.533 nM	81600 RLU	0.938 nM	91.5%	0.417 nM	7880 MFI	0.284 nM	35.9%	
PR000068 (antibody, human IgG1, kappa, N297A, V domains shown, fully human recombinant antibody, human IgG1 heavy chain, kappa light chain (IGKV1-5); also called 82F8H7E1) VH: EVQLVESGGGLVQPGGSLRLSCAASGFTFSSYWMSWVRQAPGKGLEWVANIKQDGSEKYYVDSVKGRFTISRDNAKNSLYLQMNSLRAEDTAVYYCARDRPVAGASDIWGQGTMVTVSS VL: not shown	0.288 nM	91.6%	0.603 nM	83300 RLU	0.853 nM	91.4%	0.326 nM	7640 MFI	0.199 nM	35%	
PR000066 (antibody, human IgG1, kappa, N297A, V domains shown, fully human recombinant antibody, human IgG1 heavy chain, kappa light chain (IGKV1-5); also called 69B8G8C2) VH: EVQLVESGGGLVQPGGSLRLSCAASGFTFSSYWMSWVRQAPGKGLEWVANIKQDGSEKYYVDSVKGRFTISRDNAKNSLYLQMNSLRAEDTAVYYCARDRAVAGASAFWGQGTMVTVSS VL: DIQMTQSPSTLSASVGHRVTITCRASQSISIWLAWYQQKPGKAPDLLIYKASSLETGVPSRFSGNGSGTEFTLTISSLQPDDFATYYCQQYYGSSRTFGQGTKVEIKR	0.35 nM	93%	0.292 nM	85900 RLU	0.539 nM	91.8%	0.255 nM	7860 MFI	0.198 nM	47.2%	0.0189 nM
PR000264 (antibody, human IgG1, kappa, N297A, V domains shown, heavy chain human IgG1 (N297A)) VH: EVQLVESGGGLVQPGGSLRLSCAASGFTFSSYWMSWVRQAPGKGLEWVANIKQDASEKYYVDSVKGRFTISRDNAKNSLYLQMNSLRAEDTAVFYCARDRAVAGAFAIWGQGTMVTVSS VL: DIQMTQSPSTLSASVGDRVTITCRASQSIYIWLAWYQQHPGKAPKLLIYKASSLESGVPSRFSGSGSGTEFTLTISSLQPDDFATYFCQQYYGYSRTFGQGTKVEIRR											0.0343 nM
PR000071 (antibody, human IgG1, kappa, N297A, V domains shown, fully human recombinant antibody, human IgG1 heavy chain, kappa light chain (IGKV1-5); also called 95C7C4A9) VH: EVQLVESGGGLVQPGGSLRLSCAASGFTFSSYWMSWVRQAPGKGLEWVANIKQDGSEKYYVDSVKGRFTISRDNAKNSQYLQMNSLRAEDTAVYYCARDRAVAGASDIWGQGTMVTVSS VL: not shown	0.448 nM	89%	2.71 nM	79700 RLU	0.987 nM	91.6%	0.521 nM	6890 MFI	0.351 nM	37.5%	
PR000262 (antibody, human IgG1, kappa, N297A, V domains shown, PTM variant of PR000066 (H:G55A); heavy chain human IgG1 (N297A)) VH: EVQLVESGGGLVQPGGSLRLSCAASGFTFSSYWMSWVRQAPGKGLEWVANIKQDASEKYYVDSVKGRFTISRDNAKNSLYLQMNSLRAEDTAVYYCARDRAVAGASAFWGQGTMVTVSS VL: DIQMTQSPSTLSASVGHRVTITCRASQSISIWLAWYQQKPGKAPDLLIYKASSLETGVPSRFSGSGSGTEFTLTISSLQPDDFATYYCQQYYGSSRTFGQGTKVEIKR											0.0338 nM
PR000263 (antibody, human IgG1, kappa, N297A, V domains shown, heavy chain human IgG1 (N297A)) VH: EVQLVESGGGLVQPGGSLRLSCAASGFTFSSYWMSWVRQAPGKGLEWVANIKQEGSEKYYVDSVKGRFTISRDNAKNSLYLQMNSLRAEDTAVFYCARDRAVAGAFAIWGQGTMVTVSS VL: DIQMTQSPSTLSASVGDRVTITCRASQSIYIWLAWYQQHPGKAPKLLIYKASSLESGVPSRFSGSGSGTEFTLTISSLQPDDFATYFCQQYYGYSRTFGQGTKVEIRR											0.0321 nM
